Reference: the supplement of paper PMC10567573

B1: LCOR (parent)
chain: PCAGSTSLSHSPGCSSTQGNGRPG
B2: ZNF193 (parent)
chain: QCIECGKSFNRHCNLIRHQKIHTV

Variants of: B1
Assay: protein stability index of a GFP-peptide fusion (GPS, HEK-293T) (PSI 1-6); higher = more stable
Conditions: c terminus: a fixed tail appended
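Note: lentivirally expressed fusions sorted by FACS into six bins by GFP to DsRed ratio, PSI derived from sequencing read proportions per bin multiplied by bin number.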

Row | Variant | protein stability index
1 | G19M | 2.88
2 | G19P | 3.31
3 | G19K | 3.48
4 | S9M | 3.48
5 | S9F | 2.4
6 | P12S | 3.55
7 | P12R | 2.92
8 | P12Q | 3.02
9 | P12C | 1.01
10 | S5E | 3.94
11 | S5T | 1.75
12 | S5Y | 2.41
13 | S5F | 3.35
14 | S5G | 4.2
15 | S5N | 2.67
16 | T6S | 2.77
17 | A3S | 3.73
18 | A3Q | 4.08
19 | A3D | 4.98
20 | A3V | 3.87
21 | A3C | 4.78
22 | C2T | 3.63

Row | Variant | protein stability index
23 | C2R | 5.27
24 | C2Y | 3.55
25 | C2H | 4.99
26 | C2A | 2.92
27 | C2I | 2.92
28 | C2V | 4.04
29 | C2W | 4.09
30 | S15D | 4.31
31 | S15L | 3.36
32 | S15Q | 2.79
33 | P23Y | 2.75
34 | P23C | 3.45
35 | P23W | 2.44
36 | P23I | 3.02
37 | P23M | 2.98
38 | H10A | 4.02
39 | H10D | 4.89
40 | Q18F | 2.27
41 | Q18P | 2.89
42 | N20I | 2.19
43 | S11W | 2.74
44 | S11F | 3.1

Row | Variant | protein stability index
45 | S11H | 3.3
46 | L8C | 4.55
47 | L8V | 3.58
48 | G13Q | 2.56
49 | G13M | 2.56
50 | G13S | 3.46
51 | G13K | 3.39
52 | T17M | 2.17
53 | T17S | 2.53
54 | T17I | 2.02
55 | T17N | 2.29
56 | T17C | 1.47
57 | T17K | 3.44
58 | G21A | 3.63
59 | G21H | 2.31
60 | G21R | 3.29
61 | G21F | 1.98
62 | S7K | 4
63 | P1L | 3.57
64 | P1Y | 2.96
65 | R22I | 3.97
66 | R22L | 2.47

Row | Variant | protein stability index
67 | R22P | 3.83
68 | R22C | 3.92
69 | R22G | 3.06
70 | G24F | 2.95
71 | G24K | 3.77
72 | G24L | 2.94
73 | G24H | 3.81
74 | G4M | 2.92
75 | G4L | 2.43
76 | G4A | 2.7
77 | G4I | 2.28
78 | C14T | 4.93
79 | C14G | 5.25
80 | C14Y | 3.83
81 | C14E | 4.9
82 | S16D | 4.05
83 | S16Q | 3.03
84 | S16I | 2.07
85 | S16Y | 2.02

Variants of: B2
Assay: as above
Conditions: c terminus: a fixed tail appended

Row | Variant | protein stability index
86 | I3G | 3.72
87 | I3M | 3.69
88 | I3C | 3.63
89 | I3R | 3.59
90 | I3Y | 3.38
91 | I3L | 3.87
92 | I3N | 3.65
93 | I16S | 3.41
94 | I16F | 2.43
95 | I16E | 3.44
96 | I16H | 3.18
97 | I16L | 3.29
98 | I16P | 2.56
99 | I16D | 2.96
100 | I16T | 3.3
101 | I16M | 3.1
102 | I16K | 4
103 | I16W | 2.46
104 | I16Q | 3.64
105 | R11Y | 3.04
106 | R11G | 3.25

Row | Variant | protein stability index
107 | R11K | 3.7
108 | R11P | 3.21
109 | R11V | 3.21
110 | R11S | 4.1
111 | R11F | 3.07
112 | R11D | 4.37
113 | R11E | 3.76
114 | R11T | 4.4
115 | S8L | 4.35
116 | S8K | 3.64
117 | S8F | 4.03
118 | S8Q | 3.02
119 | S8Y | 3.43
120 | S8G | 2.49
121 | S8M | 3.48
122 | S8R | 3.77
123 | S8W | 3.17
124 | H12N | 3.52
125 | H12V | 3.76
126 | H12Y | 3.27
127 | H12S | 3.22

Row | Variant | protein stability index
128 | H12A | 3.48
129 | H12I | 3.43
130 | H12P | 3.74
131 | H12W | 3.19
132 | H12G | 3.02
133 | H12M | 3.65
134 | H22M | 2.34
135 | H22G | 2.94
136 | H22I | 2.25
137 | H22L | 2.88
138 | H22E | 2.63
139 | H22F | 1.63
140 | H22N | 2.78
141 | H22Y | 1.56
142 | H22K | 2.41
143 | H22Q | 2.7
144 | H22V | 2.32
145 | H18Q | 2.24
146 | H18L | 1.71
147 | H18F | 2.4
148 | H18I | 2

Row | Variant | protein stability index
149 | H18A | 2.45
150 | H18W | 2.21
151 | H18E | 2.33
152 | H18M | 1.65
153 | H18N | 2.31
154 | H18S | 2.36
155 | H18Y | 1.41
156 | K7N | 2.34
157 | K7R | 3.05
158 | K7V | 2.44
159 | K7A | 3.74
160 | K7G | 2.13
161 | K7F | 2.37
162 | K7D | 2.57
163 | K7S | 2.82
164 | K7H | 2.35
165 | K7T | 2.93
166 | C13V | 3.88
167 | C13L | 2.73
